Source: patent US20060253917A1 (published 2006)

T1: OsCYCOS2 aa 170-310 (Oryza sativa, UniProt A2YH60 170-310)
T1 construct: bait, Gal4 DBD fusion; also called PN20257
T1 sequence: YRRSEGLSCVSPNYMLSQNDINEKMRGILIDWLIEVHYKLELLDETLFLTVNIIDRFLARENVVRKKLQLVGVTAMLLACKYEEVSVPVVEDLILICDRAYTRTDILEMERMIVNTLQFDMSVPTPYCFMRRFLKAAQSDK

T2: OsCYCOS2 aa 50-233 (Oryza sativa, UniProt A2YH60 50-233)
T2 construct: bait, Gal4 DBD fusion; also called PN20257; O. sativa Cyclin OsCYCOS2
T2 chain: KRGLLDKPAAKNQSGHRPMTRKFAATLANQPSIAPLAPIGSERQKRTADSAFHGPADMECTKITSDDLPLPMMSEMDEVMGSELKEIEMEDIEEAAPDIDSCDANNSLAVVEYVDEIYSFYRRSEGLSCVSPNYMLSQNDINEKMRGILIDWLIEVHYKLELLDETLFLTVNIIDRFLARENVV

T3: OsMADS6 aa 50-200 (Oryza sativa, UniProt Q6EU39 50-200)
T3 construct: bait, Gal4 DBD fusion; also called PN20233
T3 sequence: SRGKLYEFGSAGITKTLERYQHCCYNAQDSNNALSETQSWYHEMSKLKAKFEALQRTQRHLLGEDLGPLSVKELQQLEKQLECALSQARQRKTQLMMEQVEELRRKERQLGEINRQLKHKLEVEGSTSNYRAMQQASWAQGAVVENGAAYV

B1: Os018989-4003 aa 9-179 (other)
chain: AAAASAAPGLANLLIREGAGLPSRPERYPPFRPCTSDSFAPISREGDDIPPQKKSVSLRSGGGGNAAEREEGGANRNGKKEKTGAQRITGWGLREFSKIVSKKVEAKGRTTYNEVADEIFAELKSITQNGLEFDEKNIRRRVYDAFNVLIAIRVIAKDKKEIKWMGLTNYR
notes: prey, AD fusion; also called PN21044; Hypothetical Protein 018989-4003, Similar to Triticum sp; DP Protein
B2: Os018989-4003 aa 177-294 (other)
chain: NYRYEKIQKLEEVHKELITRIKNKKKLLQEIEKQFDDLQNITLRNQASQRPAESVNGILLPFLLIKTSRKARVEIEISEDSKFARFDFNGAPFTMHDDVSILEAIRRNKGRAGLSIHP
notes: prey, AD fusion; also called PN21044
B3: OsPN23484 aa 77-233 (other)
chain: AETATSEAMLMIERLQREKAAAQMEARQFRRYAEGREDREREVQEELASLSDLAASYHSRLQSHGIDPDSFSDDGEEEQHDEEDGEEVEQIDTAALQTDGSSGGDSIGGMQVKAMVDDDEEEQFTPVEKEFEYTVDVRCASSTTKVSGAVVVGEFMG
notes: prey, AD fusion
B4: PN20815 aa 1-134 (other)
chain: MDKELKERDEKYVELDTKFQRLHKRAKQRIQDIQKEKDDMEARFNEINQKAEQASSLQSAAQQELERARQQASEALRSMDAERQQLRTVNSKLRTNLDEARVALEARNNVLEKLRQSMFEKEQLLEQTQASLQS
notes: prey, AD fusion; also called Hypothetical Protein PN20815 Similar to A. thaliana Myosin Heavy Chain, Fragment
B5: PN26210 aa 364-613 (other)
chain: VGYNSIEAEDWELATNGEEMSKLEALLLDKNRKMEHELTQLKVKISEKSNLLEEAEKKIAELTAKAEEQQKLILKLEDDILKGYSSTDRRTSLLNDWDLQEIGSNEVAEGTDPRHAPQDQDQSSMLKVICNQRDRFRTRLRETEEELRRLKEKYEMLVVELEKTKADNVQLYGKIRYVQDYSHEKIVSRGPKKYAEDVESGSSDVETKYKKMYEDDINPFAAFSKKEKDQRYKELGLRDKITLSSGRFLL
notes: prey, AD fusion; also called Putative CCAAT Displacement Protein
B6: OsPN23484 aa 64-212 (other)
chain: RELQAELDAERASAETATSEAMLMIERLQREKAAAQMEARQFRRYAEGREDREREVQEELASLSDLAASYHSRLQSHGIDPDSFSDDGEEEQHDEEDGEEVEQIDTAALQTDGSSGGDSIGGMQVKAMVDDDEEEQFTPVEKEFEYTVD
notes: prey, AD fusion
B7: OsPN23484 aa 90-245 (other)
chain: RLQREKAAAQMEARQFRRYAEGREDREREVQEELASLSDLAASYHSRLQSHGIDPDSFSDDGEEEQHDEEDGEEVEQIDTAALQTDGSSGGDSIGGMQVKAMVDDDEEEQFTPVEKEFEYTVDVRCASSTTKVSGAVVVGEFMGEGNAAAGGLYAR
notes: prey, AD fusion
B8: OsPN29942 aa 1-159 (other)
chain: EHESDEEKNEVDTSNEIKEIVIDDMEPKVFQAGFLFMYRDNLVGDDELSASSSDCSIFDTLAGKLLAAADRYELPRLRLLCESYLCKHISVNSVATTLALADRHHAMELKSVCLKFAAENLSAVIRTDGFDYLKDNCPALQSEILRTVAGCEEECSSGG
notes: prey, AD fusion
B9: OsPN30854 aa 100-169 (other)
chain: RIDVVNRQLKPLGKTCVKKEKEYKEILEAYNEKNKEKALLVNRLIELVSESERMRMKKLEELNKTVDSLY
notes: prey, AD fusion; also called Novel Protein PN30854, unknown
B10: PN26210 aa 422-646 (other)
chain: IAELTAKAEEQQKLILKLEDDILKGYSSTDRRTSLLNDWDLQEIGSNEVAEGTDPRHAPQDQDQSSMLKVICNQRDRFRTRLRETEEELRRLKEKYEMLVVELEKTKADNVQLYGKIRYVQDYSHEKIVSRGPKKYAEDVESGSSDVETKYKKMYEDDINPFAAFSKKEKDQRYKELGLRDKITLSSGRFLLGNKYARTFIFFYTIGLHLLVFTLLYRMSALSYL
notes: prey, AD fusion; also called O. sativa Putative CCAAT Displacement Protein
B11: OsPN29968 aa 12-113 (other)
chain: LVNNEDVVAIKQMQHLILGRLQDSNAVLTHFNEYSEQCFAEVSNDFAGKTRLLKSMKADLDHIFLKLRGMKSRLAATYPDAFPTGAMAETMDQRPDLESPLD
notes: prey, AD fusion; also called Novel Protein PN29968, Similar to A. thaliana Unknown Protein BAB01990
B12: OsPN29882 aa 107-273 (other)
chain: ALMVERLEGSRQKLLMEIDSQSSEIEKLFEENSALSTSYQEAVAVTMQWENQVKDCLKQNEELRSHLEKLRLEQATLLKTSNTTIQPDGQNETSISFPPEFVTENLSLKDQLIKEQSRSEGLSAEIMKLSAELRKAVQAQNNLARLYRPVLRGIESNLMKMKQETYA
notes: prey, AD fusion; also called Novel Protein PN29882, Fragment, myosin heavy chain
B13: OsPN29958 aa 3-304 (other)
chain: QNEVSALEKQTLSLANDCLQSNKLRMEENALSTQVLKTNMRSSGDQNTVRTVKDMELQKLHGTIKALQKVVTDTAVLLDQERLDFNANLQEARKQIEVLKLKEILDDDLIEMNYEQMLKDIQLDLIQISSGNKTGSLGQANKTVAQANEKMLDSHGIVGASSSHVRNDLRPPQSESFERDNYKRPPSELMVVKELSIDKQELPRSITTEPHQEWKNKVIERLASDAQRLNALQSSIQELKTNTEASEGLELESVRYQIREAEGFITQLIDSNGKLSKKAEEFTSEDGLDGDNIDLRSRHQRK
notes: prey, AD fusion; also called Novel Protein PN29958, Fragment, centromere homologue
B14: OsPN29961 aa 10-215 (other)
chain: QKDGAPDEGSVGVPGRKTKETVTAADAIIDALDTAEEEVKRLDQHQEGQNNGNGTTFQPNVIMQGQSPSDYVLNVVSNVRPNDLEQALLSLPFSDALKIMSYLKEWSMVPLKVELVCRVCLVLLQTHHSQLTTTPSARSILTELKGILYSRVKECKDAIGFNLAAMDHIKELLAMRSDAPFRDARAKLMEIRQEQSRRSDRSDGAE
notes: prey, AD fusion; also called Novel Protein PN29961, Fragment, Similar to A. thaliana Unknown Protein BAB02349
B15: OsPN29967 aa 16-174 (other)
chain: PPTRRALTLTLTLTLLLSLAMSEPASPPPAMPEDAAPPQPQPEPAVPAGEEAAPSLERKEELLPVEEKISELDESQSQLMGRLRGLKEDLLNWRSSLDTQVTKYKSELSDIKTALNSEIEQLRSDFQELRTTLKKQQEDVSNSLKNLGLQDATDNDGNK
notes: prey, AD fusion; also called Novel Protein PN29967, Fragment, unknown
B16: OsPN29966 aa 8-216 (other)
chain: GTISAVEQESARQIASKDAEIAFLNEKLHQFRNSGLSLSEGRDKLYEEIYNLRQQLVTLSKSLLNSEWGLSVSHYNNFEGAEDESKHRGNEKSSKDGITKENGSKGSNEDIFIDPTVLKHMDRDELVAHFNKMMNQMKRQHDSTLQEKTEEIFRLKRENLKKEGPNPWHLRNNKEFELMRKKIWEVITKLDEVLVENKRTIRIKSDVFP
notes: prey, AD fusion; also called Novel Protein PN29966, Fragment, myosin heavy chain
B17: PN23136 aa 66-191 (other)
chain: LRERIHKTRQHITQLVKDTSEKLKQASEADHRVEVSASKKIADAKLAKDFQAVLKEFQKAQRLAVEREAAYAPFISQAGLPQSYNSSEVNNGADKLAEQRTALLESRRQELVFLDNEIVFNEAVIE
notes: prey, AD fusion; also called Hypothetical Protein BAA85200 Similar to Syntaxin Related Protein AtVam3p
B18: Os008339 aa 108-226 (other)
chain: ELAETSLRLRQMRGEELHRLNVEQLQELEKSLESGLGSVLKTKSKKILDEIDGLERKRMQLIEENLRLKEQVSRMSRMEEMQPGPDSEIVYEEGQSSESVTNASYPRPPPDNDYSSDTS
notes: prey, AD fusion; also called PN20847
B19: OsMADS7 aa 95-259 (other)
chain: RESEQLKASRNEYLKLKARVENLQRTQRNLLGPDLDSLGIKELESLEKQLDSSLKHVRTTRTKHLVDQLTELQRKEQMVSEANRCLRRKLEESNHVRGQQVWEQGCNLIGYERQPEVQQPLHGGNGFFHPLDAAGEPTLQIGYPAEHHEAMNSACMNTYMPPWLP
notes: prey, AD fusion; also called PN21116
B20: OsFDRMADS8 aa 91-233 (other)
chain: KDDTLGLAKKLEALDESRRKILGENLEGCSIEELRGLEMKLEKSLHNIRLKKTELLERQIAKLKEKERTLLKDNENLRGKHRNLEAAALVANHMTTTTAPAAWPRDVPMTSSTAGAADAMDVETDLYIGLPGTERSSNRSETG
notes: prey, AD fusion; also called PN20698
B21: OsBAA81880 aa 120-228 (other)
chain: IDELQQLEKNLEAGLHRVMLTKDQQFMEQISELQRKSSQLAEENMQLRNQVSQISPAEKQVVDTENFVTEGQSSESVMTALHSGSSQSQDNDDGSDVSLKLGLPCGAWK
notes: prey, AD fusion; also called PN20837
B22: OsMADS5 aa 61-171 (other)
chain: SCMYKTLERYRSCNYNLNSCEASAALETELSNYQEYLKLKTRVEFLQTTQRNLLGEDLVPLSLKELEQLENQIEISLMNIRSSKNQQLLDQVFELKRKEQQLQDANKDLKR
notes: prey, AD fusion; also called PN20770
B23: OsMADS15 aa 73-183 (other)
chain: YSYAEKALISAESESEGNWCHEYRKLKAKIETIQKCHKHLMGEDHESLNLKELQQLEQQLESSLKHIISRKSHLMLESISELQKKERSLQEENKALQKELVERQKNVRGQQ
notes: prey, AD fusion; also called PN20842
B24: OsMADS18 aa 64-249 (other)
chain: EGILERYQRYSFDERAVLEPNTEDQENWGDEYGILKSKLDALQKSQRQLLGEQLDTLTTKELQQLEHQLEYSLKHIRSKKNQLLFESISELQKKEKSLKNQNNVLQKLMETEKEKNNAIINTNREEQNGATPSTSSPTPVTAPDPIPTTNNSQSQPRGSGESEAQPSPAQAGNSKLPPWMLRTSHT
notes: prey, AD fusion; also called PN20912

Biological target: T4, OsE2F1 aa 100-250 (Oryza sativa)
T4 construct: bait, Gal4 DBD fusion; also called PN19758; O. sativa E2F Homolog
T4 sequence (chain, as listed by the source): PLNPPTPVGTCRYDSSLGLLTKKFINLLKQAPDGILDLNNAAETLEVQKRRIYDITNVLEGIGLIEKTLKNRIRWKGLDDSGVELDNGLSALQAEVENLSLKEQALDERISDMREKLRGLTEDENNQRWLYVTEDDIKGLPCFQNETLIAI
Assay: Y2H; output trait library
Method in brief: (§1)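 Protein-protein interactions were detected in an automated, high-throughput yeast two-hybrid assay from Myriad Genetics Inc. (Salt Lake City, Utah), with a bait clone encoding a defined amino-acid fragment of a rice protein screened against the input trait or output trait rice prey library. Interacting proteins were identified by BLAST comparison of the encoding sequences of retrieved prey clones against databases.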

| binding result | Binder |
| --- | --- |
| binds | B1 |
| binds | B2 |

Biological target: T1, OsCYCOS2 aa 170-310
Assay: Y2H; output trait library
Method in brief: as §1

| binding result | Binder |
| --- | --- |
| binds | B3 |
| binds | B4 |
| binds | B5 |
| binds | B6 |
| binds | B7 |
| binds | B8 |
| binds | B9 |
| binds | B10 |

Biological target: T2, OsCYCOS2 aa 50-233
Assay: Y2H; output trait library
Method in brief: as §1

| binding result | Binder |
| --- | --- |
| binds | B11 |
| binds | B12 |
| binds | B13 |
| binds | B14 |
| binds | B15 |
| binds | B16 |
| binds | B17 |

Biological target: T3, OsMADS6 aa 50-200
Assay: Y2H; output trait library
Method in brief: as §1

| binding result | Binder |
| --- | --- |
| binds | B18 |
| binds | B19 |
| binds | B20 |
| binds | B21 |
| binds | B22 |
| binds | B23 |
| binds | B24 |
